Measured values from patent EP1007666B1 (GENENTECH, INC., dated 2005).
Each block holds one binder with its values, some of them ahead of it.

Key:
[1] = molecular target: T1, rat NTNRα-IgG (soluble rNTNRα, product of pRK-rNTNRα-IgG) (rat); experiment: equilibrium binding of 125I-NTN with cold ligand to soluble NTNRα-IgG, protein A Sepharose precipitation, IGOR fit
T1 construct: Used as conditioned medium of transiently transfected 293 cells; also called soluble rNTNRα protein; rat fusion protein

[2] = molecular target: T2, human NTNRα-IgG (soluble human NTNRα, product of pRK-hNTNRα-IgG) (human); experiment: equilibrium binding of 125I-NTN with cold ligand to soluble NTNRα-IgG, protein A Sepharose precipitation, IGOR fit (data not shown)
T2 construct: Used as conditioned medium of transiently transfected 293 cells; also called recombinant soluble human NTNRα; hNTNRα fusion

[3] = molecular target: T3, recombinant soluble rat GDNFRα (rat, UniProt Q62997 25-430, limits assumed); experiment: displaceable equilibrium binding of 125I-rGDNF to recombinant soluble rGDNFRα; Scatchard inset of Fig. 6B
T3 construct: also called rGDNFRα; GFR-alpha-1
T3 sequence (looked up): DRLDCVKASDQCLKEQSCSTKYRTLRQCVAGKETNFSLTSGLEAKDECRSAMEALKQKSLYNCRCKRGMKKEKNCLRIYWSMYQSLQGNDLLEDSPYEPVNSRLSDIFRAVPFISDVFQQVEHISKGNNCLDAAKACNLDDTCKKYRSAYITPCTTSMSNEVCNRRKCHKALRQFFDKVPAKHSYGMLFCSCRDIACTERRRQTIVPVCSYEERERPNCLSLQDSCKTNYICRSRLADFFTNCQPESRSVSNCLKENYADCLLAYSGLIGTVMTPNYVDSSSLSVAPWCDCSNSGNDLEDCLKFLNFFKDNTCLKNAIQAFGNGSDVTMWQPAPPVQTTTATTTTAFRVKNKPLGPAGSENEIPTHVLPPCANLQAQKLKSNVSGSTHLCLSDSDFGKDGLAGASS

[4] = molecular target: T1, rat NTNRα-IgG (soluble rNTNRα, product …); experiment: binding experiments with biotinylated ligand, format not described
[5] = molecular target: T1, rat NTNRα-IgG (soluble rNTNRα, product …); experiment: equilibrium binding of 125I-NTN with cold ligand to soluble NTNRα-IgG, protein A Sepharose precipitation, IGOR fit; Scatchard inset of Fig. 6C

B1: human Neurturin (ligand, UniProt Q99748 96-197, looked up)
chain: ARLGARPCGLRELEVRVSELGLGYASDETVLFRYCAGACEAAARVYDLGLRRLRQRRRLRRERVRAQPCCRPTAYEDEVSFLDAHSRYHTVHELSARECACV
modifications: 125I-labelled in the direct binding assays; unlabelled as cold competitor
notes: also called human NTN; hNTN
Kd [1]: ~0.01 nM | Kd [2]: ~0.01 nM

B3: GDNF, species not stated at these places (ligand)
chain: SPDKQAAALPRRERNRQAAAASPENSRGKGRRGQRGKNRGCVLTAIHLNVTDLGLGYETKEELIFRYCSGSCEAAETMYDKILKNLSRSRRLTSDKVGQACCRPVAFDDDLSFLDDSLVYHILRKHSAKRCGCI
modifications: Biotinylated in the paragraph 22 experiment; natural form is a disulfide-linked homodimer
notes: also called biotinylated GDNF
Kd [4]: > 1000 µM

Now from value to binder:

Kd [3]: 3 pM
B2: rat GDNF (ligand, UniProt Q07731 78-211, looked up)
chain: B3 chain
modifications: 125I: iodinated either on tyrosine by the Bolton Hunter method or on lysine using lactoperoxidase
notes: also called rGDNF

Kd [2]: ~0.01 nM | Kd [5]: ~0.01 nM
B4: mouse Neurturin (ligand, UniProt P97463 96-195, looked up)
chain: PGARPCGLRELEVRVSELGLGYTSDETVLFRYCAGACEAAIRIYDLGLRRLRQRRRVRRERARAHPCCRPTAYEDEVSFLDVHSRYHTLQELSARECACV
modifications: 125I-labelled in the direct binding assays; unlabelled as cold competitor
notes: also called mouse NTN; mNTN
